Measurements from PMC11819540, “A new method for the reproducible development of aptamers (Neomers)”.

B1: IL-6-6449 (ssDNA)
DNA: TGTGTATAAGTCGCGAGGTTTGAATGCGAACCATCGGCGCCAACAAAACATTCAAACAGAAATCTACTAGTCAC
modifications: thiol

The binders below were run against Interleukin 6 (IL-6) (Homo sapiens, UniProt P05231 30-212) (assay: SPRi; SPRi running buffer: 400 mM 6-aminohexanoic acid, 2 mM TETA, 100 mM NaCl, pH 5.7 ± 0.1, 25 °C; aptamers immobilized on gold, protein in flow at 50 µL/min). Details: protein: commercial.
Sequence of Interleukin 6 (IL-6) (P05231 30-212): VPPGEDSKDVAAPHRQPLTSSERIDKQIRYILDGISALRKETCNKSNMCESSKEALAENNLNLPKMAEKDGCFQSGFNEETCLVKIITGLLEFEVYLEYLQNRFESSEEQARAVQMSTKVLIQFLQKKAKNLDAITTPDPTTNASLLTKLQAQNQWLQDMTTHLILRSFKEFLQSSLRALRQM
With CAAGAGGGTTGAATTGCAACCATCGGC (ssDNA, thiol) [IL-6-7326.1] the Kd was 0.027 µM. For GTCCTGAGGTGTGAATACAAACCATCGG (ssDNA, thiol) [IL-6-4202.1], the Kd was 0.0732 µM. Work on B1 yielded a Kd of 0.0321 µM.
